The source of these data is patent publication US20210187091A1 (published 2021).

The target in test [1] is T1, Man9-V3 glycopeptide (Man9GlcNAc2 at N301 and at N332; disulfide bridge between C296 and C331 (cyclized); biotin tag).
T1 peptide: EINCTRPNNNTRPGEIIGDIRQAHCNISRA
The test can be described thus: BLI. Background: In BLI a coated tip is dipped into the sample, and binding shifts an interference pattern.

The target of test [2] is T1, Man9-V3 glycopeptide. Briefly: BLI.

Where two headings read alike, the source gives them in different places.

For orientation: Kd means the concentration at which binding is half-saturated. The low end stands for higher affinity, the high end for lower affinity.

B1: DH270.4 (antibody, V domains shown)
VH: EVQLVQSGAEMKNPGASVKVSCAASGYGFTDFYIHWVRLAPGHGLQWMGWMNPKTGRTNNAQDFQGRVILTRDTSIGTAYMELRRLTSDDTAVYYCVTGGWISPYYDSSYYPNFDHWGQGTLITVSS
VL: QSALTQPASVSGSPGQSITISCTGTSYDVAKFDLVSWFQQHPGKAPKYMIYEVNKWPSGVSHRFSGSKSGNTASLTISGLQAEDEADYYCCSFGGSATVVCGGGTKVTVL
For B1, the Kd with Man9-V3 glycopeptide [1] turned out to be 346 nM.

B2: DH270.IA1 (antibody, V domains shown)
VH: QVQLVQSGAEVKKPGASVKVSCKASGYTFTDYYIHWVRQAPGQGLEWMGWINPNTGRTNYAQKFQGRVIMTRDTSISTAYMELSRLRSDDTAVYYCARGGWIGLYYDSSGYPNFDYWGQGTLVTVSS
VL: QSALTQPASVSGSPGQSITISCTGTSYDVGSYNLVSWYQQHPGKAPKLMIYEVSKRPSGVSNRFSGSKSGNTASLTISGLQAEDEADYYCCSYAGSSTVIFGGGTKLTVL
B2 came in with a Kd with Man9-V3 glycopeptide [2] of 3290 nM.

B3: DH270.2 (antibody, V domains shown)
VH: QVQLVQSGAEMKKPGASVRVSCKASGYTFTDYYIHWVRQAPGQGPEWMGWINPSTGRTNSPQKFQGRVIMTRDTSISTAYMDLNRLTSDDTAMYYCTTGGWIGLYSDTSGYPNFDYWGQGTLVTVSS
VL: QSALTQPASVSGSPGQSITISCTGTNYDVGSYNLVSWYQQHPGKVPKYIIYEVNKRPSGVSNRFSGSKSGNTASLTISGLQAEDEADYYCCSYAGSSIIFFGGGTKLTVI
Take B3: the Kd with Man9-V3 glycopeptide [1] amounted to 4770 nM.

B4: DH270.5 (antibody, V domains shown)
VH: QVQLVQSGAEVKNPGASVKVSCAPSGYTFTDFYIHWVRLAPGQGLEWLGWMNPKTGRTNQGQNFQGRVIMTRDTSIGTAYMELRSLTSDDTAVYYCVTGAWISDYYDSSYYPNFDHWGQGTLVTVSS
VL: LPVLTQPASVSGSPGQSITISCTGTIYDVGKFDLVSWYQHHPGKAPKYLIYEVKKWPSGVSHRFSGSKSGNTASLTISGLQVEDEADYYCCSFGGSAAVVCGGGTKVTVL
In turn, B4 yielded a Kd with Man9-V3 glycopeptide [1] of 281 nM.

B5: DH270.3 (antibody, V domains shown)
VH: QVQLVQSGAEMKNPGASVKVSCAASGYTFTDFYIHWVRLAPGQGLEWMGWMNPKTGRTNNAQNFQGRVIMTRDTSIGTAYMELRRLTSDDTAVYYCVTGGWISPYYDSSYYPNFDHWGQGTLVTVSS
VL: QSALTQPASVSGSPGQSITISCTGTSYDVGKFDLVSWYQQHPGKAPKYMIYEVNKWPSGVSHRFSGSKSGNTASLTISGLQAEDEADYYCCSFGGSATVVCGGGTKVTVL
B5 showed a Kd in the test with Man9-V3 glycopeptide [1] of 195 nM.
